This is an account of results in paper PMC4587768.

Assay [1] addresses BG505 SOSIP-sCD4 complex (HIV-1 (strain BG505) | human) (UniProt Q2N0S6). Briefly: cryo-EM structure.
Assay [2] shares this target. Briefly: negative-stain single-particle EM.
Assay [3] addresses BG505 SOSIP.664 soluble HIV-1 Env trimer (HIV-1 (strain BG505)) (UniProt Q2N0S6). Briefly: cryo-EM structure.
For assay [4] the target is unchanged. The experiment in a line: negative-stain single-particle EM.

Consider 17b Fab (CD4-induced antibody), for which the stoichiometry N (Fabs per trimer) in assay [1] is 3. The substance also returned a stoichiometry N (copies per trimer) in assay [2] of 3.

Take “sCD4 (CD4 domains 1 and 2) (domain or fragment)”: the stoichiometry N (sCD4 per trimer) in assay [3] was 3. Further, in assay [4], the stoichiometry N (copies per trimer) was determined as 3.
